Source: patent US20260226161A1 (EXELIXIS, published 2026)

T1: CD94 (in the NKG2A/CD94 heterodimeric ectodomain complex) (UniProt Q13241 32-179)
T1 construct: extracellular domain; Tested only as part of the complex; also called CD94 protein
T1 sequence (looked up): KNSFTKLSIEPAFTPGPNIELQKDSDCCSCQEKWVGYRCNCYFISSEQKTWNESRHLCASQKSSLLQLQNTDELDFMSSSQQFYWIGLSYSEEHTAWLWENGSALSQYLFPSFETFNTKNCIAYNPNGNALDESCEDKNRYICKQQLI

B1: Antibody Clone A42 (antibody, human IgG1, kappa, V domains shown)
VH: EVQLVESGGGLVQPGGSLRLSCAASGFTFSWYYIHWVRQAPGKGLEWVAVIDPISSYTYYADSVKGRFTISADTSKNTAYLQMNSLRAEDTAVYYCARGFDRAMDYWGQGTLVTVSS
VL: DIQMTQSPSSLSASVGDRVTITCRASQSVSSAVAWYQQKPGKAPKLLIYSASSLYSGVPSRFSGSRSGTDFTLTISSLQPEDFATYYCQQYYSSPYTFGQGTKVEIKR
B2: P12 × A11 (1 × 1 format) (bispecific antibody)
heavy 1: DIQMTQSPSSLSASVGDRVTITCRASQSVSSAVAWYQQKPGKAPKLLIYSASSLYSGVPSRFSGSRSGTDFTLTISSLQPEDFATYYCQQFMLEPITFGQGTKVEIKGQPREPQVCTLPPSRDELTKNQVSLTCLVRGFYPSDIAVEWESNGQPENNYKTTPPVLDSDGSFFLYSKLTVDKSRWQQGNVFSCSVMHEALHNHYTQKSLSLSPGKDKTHTCPPCPAPEAAGGPSVFLFPPKPKDTLMISRTPEVTCVVVDVSHEDPEVKFNWYVDGVEVHNAKTKPREEQYNSTYRVVSVLTVLHQDWLNGKEYKCKVSNKALKAPIEKTISKAKGQPREPQVYTLPPSREEMTKNQVSLSCAVKGFYPSDIAVEWESNGQPENNYKTTPPVLDSDGSFFLVSKLTVDKSRWQQGNVFSCSVMHEALHNHYTQKSLSLSPGK
light 1: EVQLVESGGGLVQPGGSLRLSCAASGFTFSSYYIHWVRQAPGKGLEWVATINSRGGFTLYADSVKGRFTISADTSKNTAYLQMNSLRAEDTAVYYCARGYTLTPVLDYWGQGTLVTVSSAQPREPQVYTLPPCRDWLTKNQVSLTCLVKGFYPSDIAVEWESNGQPENNYKTTPPVLDSDGSFFLYSKLTVDKSRWQQGNVFSCSVMHEALHNHYTQKSLSLSPGK
heavy 2: not shown
light 2: EVQLVESGGGLVQPGGSLRLSCAASGFTFSWYYIHWVRQAPGKGLEWVAVIDPISSYTYYADSVKGRFTISADTSKNTAYLQMNSLRAEDTAVYYCARGFDRAMDYWGQGTLVTVSSASTKGPSVFPLAPSSKSTSGGTAALGCLVKDYFPEPVTVSWNSGALTSGVHTFPAVLQSSGLYSLSSVVTVPSSSLGTQTYICNVNHKPSNTKVDKKVEPKSC
notes: One PD-L1 site, one NKG2A site; also called P12×A11, sFc; P12×A11 (sFc)

Legend:
[1] = target: T2, biotinylated human NKG2C/CD94 heterodimer (extracellular domains, Fc fusions) (human, UniProt P26717 94-231; Q13241 32-179, biotinylated); assay: selection summary of Examples 2-5 (Octet binding)
T2 construct: not shown: N-terminal Fc (hole)

[2] = target: T3, biotinylated cyno NKG2A/CD94 heterodimer (extracellular domains) (cynomolgus, UniProt Q9MZJ3 94-233; Q9MZK9 32-179, biotinylated); assay: selection summary of Examples 2-5 (Octet binding)
T3 construct: also called Cynomolgus NKG2A protein; not shown: fusion partner/tags ('similar approach' to the human proteins); fusion partner ('similar approach')

[3] = target: T4, NKG2A expressed on KHYG-1 cells (endogenous) (human, UniProt P26715 1-233; Q13241 1-179); assay: flow cytometry on KHYG-1 cells expressing endogenous NKG2A
T4 construct: whole, on cells; Surface NKG2A copy number of approximately 10-20K; also called KHYG-1 cells expressing endogenous NKG2A; NKG2A-expressing cells
Method: Antibodies that were selected for binding to NKG2A, for example, such as those described in Examples 1 and 2, were evaluated for binding to cells that express NKG2A.
Cells were harvested at 70-90% confluence on the day of the assay. Cells were collected by centrifugation at 200×g for 5 minutes and media was removed. Cells were resuspended at 2×10⁶ cells per mL in cold PBS. […] 50 μL per well of the antibody dilution was plated in a 96 well V-bottom plate (Costar 3897). 50 μL per well of cell suspension was added. Plates were placed at 4° C. for 45-60 minutes.

[4] = target: T4, NKG2A expressed on KHYG-1 cells …; assay: cell-based or functional assay
PD-L1 expressed on cells [5] = target: T5, PD-L1 expressed on cells (UniProt Q9NZQ7 19-290, limits assumed); assay: cell-based or functional assay
[6] = target: T4, NKG2A expressed on KHYG-1 cells …; assay: flow cytometry on KHYG-1 cells expressing endogenous NKG2A; remark: listed apart in the source
Method: (§1) Cells were collected by centrifugation at 400×g for 7 minutes and primary antibody was removed. 50 μL per well of AF488 goat anti human IgG Fab (Jackson Immuno Research 109-547-003) at 1:100 dilution was added. Plates were placed at 4° C. for 30 minutes.
(§2) Cells were collected by centrifugation at 400×g for 7 minutes and secondary antibody was removed. Cells were resuspended in 50 μL per well of PBS and analyzed by flow cytometry. Binding curves were calculated using the mean fluorescence intensity (MFI) of the FITC fluorescence signal on the cells. Bispecific antibody binding was evaluated in KHYG-1 cells expressing endogenous NKG2A and in MC/CAR cells expressing PD-L1. Cells were harvested and assayed for binding as described above.

[7] = target: T1, CD94 (in the NKG2A/CD94 heterodimeric …); assay: HDX-MS on the NKG2A/CD94 ectodomain complex
Method: Two different Quench conditions were used for digestion to improve the coverage. Both Data sets 1 and 2 were collected for 3 different timepoints (2, 10, and 60 mins) in triplicate. D₂O Buffer used was 20 mM Phos, 150 mM NaCl, pH 7.4. The relative fractional uptake greater than 5% was considered significant in the analysis.
Leap HDX auto sampler and Waters Cyclic IMS MS were the instruments used.
Quenching: The exchange reaction was quenched by a shift to acidic pH and a temperature drop (two proprietary conditions were used-potential variation in buffer formulation included the use of denaturants or reducing agents).

PD-L1 expressed on cells [8] = target: T5, PD-L1 expressed on cells; assay: cell-based or functional assay; remark: listed apart in the source
[9] = target: T6, Human NKG2A & CD94 with mouse IgG2a Fc tag (AcroBiosystems) (human, UniProt P26715 94-233; Q13241 32-179, limits assumed); assay: SPR (Carterra), antibody on chip, soluble antigen
T6 construct: Bought soluble antigen of the Carterra assay; also called hNKG2A; not shown: mouse IgG2a Fc tag

Cyno PD-L1 = Cyno PD-L1 (cyno, UniProt G7PSE7 19-238); assay: SPR (Carterra), antibody on chip, soluble antigen
[10] = target: T7, Human PD-L1 with His tag (AcroBiosystems) (human, UniProt Q9NZQ7 19-238); assay: SPR (Carterra), antibody on chip, soluble antigen
T7 construct: Bought protein; also called hPD-L1; not shown: His tag

PD-L1 expressed on cells [11] = target: T5, PD-L1 expressed on cells; assay: flow cytometry on MC/CAR cells expressing PD-L1
Method: as §1, §2

[12] = target: T8, cynomolgus NKG2A/CD94 (soluble antigen of the equilibrium assay) (cynomolgus, UniProt Q68VD2 94-233; Q68VD4 32-179, Biotinylated in the Octet assays of Example 2; state in the SPR equilibrium assay not seen.); assay: SPR equilibrium response, Langmuir isotherm; antibody on chip, soluble antigen
T8 construct: also called Cyno NKG2A/CD94; copies: 1 + 1
Method: In addition, a method using an equilibrium approach was performed. Kd determinations for cynomolgus NKG2A/CD94 were performed by measuring the signal response at equilibrium. […] The equilibrium response signals and corresponding antigen concentrations were then input into a Langmuir binding isotherm model, and the Kd was determined through nonlinear regression. Averages and standard deviations were calculated from 24 replicate chip locations for each molecule.

[13] = target: T4, NKG2A expressed on KHYG-1 cells …; assay: flow cytometry competition; inhibition of HLA-E tetramer binding to KHYG-1 cells
Method: 15 μL per well of binder dilution at 2× concentration was plated in a 96-well plate (Costar 3897). 15 μL per well of cell suspension at 5×10⁶ cells per mL was added. Plates were placed at 4° C. for 30 minutes. Following the incubation, 5 μL per well of Fc block (BD Pharmingen Cat #564220) was added at a final concentration of 500 ng per well. Plates were placed at 4° C. for 10 minutes. […] Plates were placed at 4° C. for 1 hour. Following the incubation, 100 μL per well of PBS was added and plate was centrifuged at 400×g for 7 minutes. Supernatant was removed by flicking the plate. Cells were resuspended in 50 μL per well of PBS and analyzed by flow cytometry (Intellicyt).

T6 sequence (P26715 94-233 limits assumed, one chain of several): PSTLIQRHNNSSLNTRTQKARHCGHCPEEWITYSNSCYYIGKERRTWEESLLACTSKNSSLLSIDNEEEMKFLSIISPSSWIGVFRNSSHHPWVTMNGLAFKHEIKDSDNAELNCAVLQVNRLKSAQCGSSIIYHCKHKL
T7 sequence (Q9NZQ7 19-238 limits assumed): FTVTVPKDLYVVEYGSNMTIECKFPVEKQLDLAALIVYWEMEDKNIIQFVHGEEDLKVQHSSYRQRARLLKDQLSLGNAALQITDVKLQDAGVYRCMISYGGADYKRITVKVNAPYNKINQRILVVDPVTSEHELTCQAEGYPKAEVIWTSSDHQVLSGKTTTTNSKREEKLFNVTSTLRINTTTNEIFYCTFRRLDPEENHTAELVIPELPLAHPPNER
T5 sequence (Q9NZQ7 19-290 limits assumed): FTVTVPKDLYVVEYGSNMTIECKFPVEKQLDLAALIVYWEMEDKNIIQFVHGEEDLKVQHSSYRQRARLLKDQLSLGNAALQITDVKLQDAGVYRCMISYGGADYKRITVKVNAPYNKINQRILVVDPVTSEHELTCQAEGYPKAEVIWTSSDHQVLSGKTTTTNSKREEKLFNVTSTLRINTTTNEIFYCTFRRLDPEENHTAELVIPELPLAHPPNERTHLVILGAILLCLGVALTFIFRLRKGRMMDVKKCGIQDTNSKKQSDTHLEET
Chain of Cyno PD-L1 (G7PSE7 entry or part of it limits assumed): as the sequence (Q9NZQ7 19-238 limits assumed) above, with A33T, A34S, S62N, R68Q, Q82R, F173L, T185A, T192I, H215L counted along it
T3 sequence (Q9MZJ3 other isoform, or with tags, fused parts or gaps, chain 1 of 2): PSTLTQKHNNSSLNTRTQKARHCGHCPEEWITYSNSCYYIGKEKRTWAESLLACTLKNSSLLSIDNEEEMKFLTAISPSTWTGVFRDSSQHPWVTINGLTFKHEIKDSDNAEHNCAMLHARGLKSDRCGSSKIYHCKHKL
T3 sequence (Q9MZK9 32-179, chain 2 of 2): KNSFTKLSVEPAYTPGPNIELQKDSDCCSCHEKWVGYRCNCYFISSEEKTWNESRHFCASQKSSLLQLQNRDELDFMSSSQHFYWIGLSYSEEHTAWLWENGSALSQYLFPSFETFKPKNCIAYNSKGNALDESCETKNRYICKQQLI
T8 sequence (NKG2A, as listed by the source limits assumed, chain 1 of 2): as the sequence (Q9MZJ3 other isoform, or with tags, fused parts or gaps, chain 1 of 2) above
T8 sequence (CD94, as listed by the source limits assumed, chain 2 of 2): as the sequence (Q9MZK9 32-179, chain 2 of 2) above
T2 sequence (P26717 other isoform, or with tags, fused parts or gaps): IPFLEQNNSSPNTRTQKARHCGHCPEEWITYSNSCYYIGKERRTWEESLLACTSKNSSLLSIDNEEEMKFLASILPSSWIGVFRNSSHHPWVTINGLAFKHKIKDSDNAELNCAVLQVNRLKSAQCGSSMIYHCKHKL

Binder	binding result [1]	binding result [2]	EC50 [3] [nM]	EC50 (read off the curve) of doublet formation between NKG2A+ KHYG-1 and PD-L1+ LCL721.221-PD-L1 cells [4] [nM]	EC50 (read off the curve) of doublet formation between NKG2A+ KHYG-1 and PD-L1+ LCL721.221-PD-L1 cells (PD-L1 expressed on cells [5]) [nM]	EC50 [6] [nM]	binding result [7]	IC50 of inhibiting PD-1/PD-L1 interaction in PD-L1+MDA-MB-231 cells (PD-1/PD-L1 Signaling Bioassay, chemiluminescent signal) (PD-L1 expressed on cells [8]) [nM]	Kd [9] [nM]	koff [9] [s⁻¹]	kon [9] [M⁻¹ s⁻¹]	Kd (Cyno PD-L1) [nM]	koff (Cyno PD-L1) [s⁻¹]	kon (Cyno PD-L1) [M⁻¹ s⁻¹]	Kd [10] [nM]	koff [10] [s⁻¹]	kon [10] [M⁻¹ s⁻¹]	EC50 (PD-L1 expressed on cells [11]) [nM]	Kd [12] [nM]	EC50 [13] [nM]
B1	no binding	binds	26.7	–	–	–	–	–	–	–	–	–	–	–	–	–	–	–	–	–
B2	–	–	–	~0.2	~0.2	2.8	no binding	0.557	0.38	9e-05	240000	0.11	6e-05	540000	0.17	8e-05	470000	2.17	49	66
